Data on 94 variants can be found in the supplement of paper PMC10567573.

B1: PSD2 (parent)
chain: PLMGETQERERVLTHFSRRYCQCN
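Further: lentivirally expressed fusions sorted by FACS into six bins by GFP to DsRed ratio, PSI derived from sequencing read proportions per bin multiplied by bin number.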

This data set covers variants of B1. The data set can be described thus: protein stability index of a GFP-peptide fusion (GPS, HEK-293T) (PSI 1-6); higher = more stable. As to conditions: c terminus: a fixed tail appended.
In the case of PLMGETQERERVLTFFSRRYCQCN, the protein stability index turned out to be 1.47.

As to PLMGETQERERVLTDFSRRYCQCN, the protein stability index was 3.15. With PLMGETQERERVLTQFSRRYCQCN the figure was 1.99. With PLMGETQERERVLTPFSRRYCQCN the figure was 2.6. On to PLMGETQERERVLTWFSRRYCQCN, for which the protein stability index was found to be 1.2. With PLMGETQERERVLTTFSRRYCQCN, the protein stability index came to 3.03. Next, PLMGETQERERVLTLFSRRYCQCN: 2.7.

Turning to PLMGETQERERVLTYFSRRYCQCN, the protein stability index worked out at 2.44. Next, PLMGETQERERVLTSFSRRYCQCN: 3.18; PLMGETQERERVLTEFSRRYCQCN: 4.15; PLMGETQERERVLTCFSRRYCQCN: 2.9. With PLMGETQERERVLTGFSRRYCQCN the figure was 3.07; with PLMGETQERERVLTNFSRRYCQCN, 3.02. Next, PLMGETQERERVLTHFSRRYCQCT: 3.74; PLMGETQERERVLTHFSRRYCQCE: 3.84; PLMGETQERERVLTHFSRRYCQCP: 3.02. For the variant PLMGETQERERVLTHFSRRYCQCL, the protein stability index was found to be 2.71. Next, PLMGETQERERVLTHFSRRYCQCY: 2.22; PLMGETQERERVLTHFSRRYCQCS: 3.38. Take PLMGETQERERVLTHFSRRYCQCC: the protein stability index turned out to be 3.05. Next, PLMGETQERERVLTHFSRRYCQCF: 2.79; PLMGETNERERVLTHFSRRYCQCN: 2.9; PLMGETMERERVLTHFSRRYCQCN: 2.22. With PLMGETCERERVLTHFSRRYCQCN the figure was 3.6; with PLMGETRERERVLTHFSRRYCQCN, 2.26; with PLMGETWERERVLTHFSRRYCQCN, 1.44. Next, PLMGETIERERVLTHFSRRYCQCN: 1.97; PLMGETHERERVLTHFSRRYCQCN: 3.23; PLMGETFERERVLTHFSRRYCQCN: 2.73.

Take PLMGETVERERVLTHFSRRYCQCN: the protein stability index was found to be 3.27. With PLMGETYERERVLTHFSRRYCQCN the figure was 2.82. For PLMGETQVRERVLTHFSRRYCQCN, the protein stability index turned out to be 1.71. Next, PLMGETQKRERVLTHFSRRYCQCN: 2.12; PLMGETQARERVLTHFSRRYCQCN: 2.03; PLMGETQWRERVLTHFSRRYCQCN: 1.65. With PLMGETQHRERVLTHFSRRYCQCN the figure was 1.97. Next, PLMGETQQRERVLTHFSRRYCQCN: 3.54; PLMGETQDRERVLTHFSRRYCQCN: 3.46; PLMGETQERERVLTHFSRRYCQYN: 2.85. As to PLMGETQERERVLTHFSRRYCQSN, the protein stability index came out at 3.87. Next, PLMGETQERERVLTHFSRRYCQQN: 4.39.

For PLMGETQERERVLTHFSRRYCQRN, the protein stability index is 3.6. Next, PLMGETQERERVLTHFSRRYCQAN: 4.01; PLMGETQERERVLTHFSRRYCQNN: 4.07; PLMGETQERERVLTHFSRRYCQTN: 3.87. Consider PLMGETQEREKVLTHFSRRYCQCN, for which the protein stability index was 2.87. With PLMGETQEREHVLTHFSRRYCQCN the figure was 3.73.

As to PLMGETQEREPVLTHFSRRYCQCN, the protein stability index is 3.02. With PLMGETQEREVVLTHFSRRYCQCN the figure was 3.46; with PLMGETQERERVLTHFSPRYCQCN, 3.01; with PLMGETQERERVLTHFSFRYCQCN, 1.99. With PLMGETQERERVLTHFSCRYCQCN, the protein stability index was found to be 1.77. Next, PLMGETQERERVLTHFSLRYCQCN: 2.24; PLMGETQERERVLTHFSNRYCQCN: 3.06; PLMGETQERERVLTHFSWRYCQCN: 1.79. Next, PLMGETQERERVLTHFSVRYCQCN: 2.02; PLTGETQERERVLTHFSRRYCQCN: 4.68. With PLKGETQERERVLTHFSRRYCQCN the figure was 3.13; with PLLGETQERERVLTHFSRRYCQCN, 3.15. Regarding PLRGETQERERVLTHFSRRYCQCN, the protein stability index worked out at 2.44.

For the variant PLAGETQERERVLTHFSRRYCQCN, the protein stability index was 3.72. With HLMGETQERERVLTHFSRRYCQCN the figure was 2.6. Next, FLMGETQERERVLTHFSRRYCQCN: 2.48. Regarding QLMGETQERERVLTHFSRRYCQCN, the protein stability index stood at 2.81. Next, KLMGETQERERVLTHFSRRYCQCN: 2.25; VLMGETQERERVLTHFSRRYCQCN: 2.4. ELMGETQERERVLTHFSRRYCQCN: the protein stability index came out at 2.79. With TLMGETQERERVLTHFSRRYCQCN the figure was 2.58; with ALMGETQERERVLTHFSRRYCQCN, 1.96; with PPMGETQERERVLTHFSRRYCQCN, 2.99. With PDMGETQERERVLTHFSRRYCQCN the figure was 3.37. With PGMGETQERERVLTHFSRRYCQCN the figure was 4.03; with PTMGETQERERVLTHFSRRYCQCN, 3.01. For PEMGETQERERVLTHFSRRYCQCN, the protein stability index was 3.91. With PIMGETQERERVLTHFSRRYCQCN, the protein stability index was found to be 3.17.

As for PCMGETQERERVLTHFSRRYCQCN, the protein stability index was found to be 3.52. With PLMGETQERERVLTHFSRRYCVCN the figure was 1.69; with PLMGETQERERVLTHFSRRYCECN, 3.96; with PLMGETQERERVLTHFSRRYCFCN, 2.42. On to PLMGETQERERVLTHFSRRYCACN, for which the protein stability index amounted to 3.55.

On to PLMGETQERERVLTHFSRRYCGCN, for which the protein stability index amounted to 2.29. Next, PLMGETQERERVLTHFSRRYCSCN: 3.04. Next, PLMGETQERERVLTHFSRRYCHCN: 2.62; PLMGETQERERVLTHFSRRYCICN: 2.09; PLMGETQERERVLPHFSRRYCQCN: 2.88.

Take PLMGETQERERVLLHFSRRYCQCN: the protein stability index came out at 2.02.

For the variant PLMGETQERERVLHHFSRRYCQCN, the protein stability index stood at 2.65. With PLMGETQERERVLQHFSRRYCQCN the figure was 2.56. As to PLMGETQERERVLNHFSRRYCQCN, the protein stability index amounted to 2.63. For PLMGETQERERVLFHFSRRYCQCN, the protein stability index amounted to 2.63. With PLMGETQERERVLEHFSRRYCQCN the figure was 2.93. With PLMGETQERERVLGHFSRRYCQCN the figure was 2.83.

As for PLMGETQERERVLIHFSRRYCQCN, the protein stability index is 2.13. Next, PLMGETQERERVLYHFSRRYCQCN: 1.71.
